Article PMC5216124, “Cell division orientation is coupled to cell–cell adhesion by the E-cadherin/LGN complex” (Nature Communications, 2017)

Target: T1, LGN-TPR:S-tag (human, UniProt P81274 8-311)
T1 construct: LGN, human, NM_013296.4, TPR repeats, amino acids 8-311; also called LGN-TPR with C-terminal S-tag; not shown: S-tag, C-terminal, kept
T1 sequence (looked up): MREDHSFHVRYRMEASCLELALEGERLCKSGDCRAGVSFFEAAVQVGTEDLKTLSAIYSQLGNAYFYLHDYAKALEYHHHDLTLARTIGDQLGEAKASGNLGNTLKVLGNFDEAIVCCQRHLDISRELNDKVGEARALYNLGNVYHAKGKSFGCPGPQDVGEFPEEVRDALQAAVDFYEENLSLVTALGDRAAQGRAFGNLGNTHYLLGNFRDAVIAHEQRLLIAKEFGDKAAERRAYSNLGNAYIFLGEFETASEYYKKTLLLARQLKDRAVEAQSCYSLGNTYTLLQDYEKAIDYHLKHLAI
Assay: pull-down; in vitro competition: E-cad-cyto/LGN-TPR:S-tag complex (GST cleaved off with TEV) held on S-protein agarose by the S-tag; 100 μg NuMA (1808-1988) added, 4 °C overnight; blotted for LGN and E-cadherin
Settings: both partners purified

binding result: binds
B1: region of human NuMA containing the LGN-binding site (domain or fragment, UniProt Q14980-1 1808-1988, looked up)
chain: RRRTTQIINITMTKKLDVEEPDSANSSFYSTRSAPASQASLRATSSTQSLARLGSPDYGNSALLSLPGYRPTTRSSARRSQAGVSSGAPPGRNSFYMGTCQDEPEQLDDWNRIAELQQRNRVCPPHLKTCYPLESRPSLSLGTITDEEMKTGDPQETLRRASMQPIQIAEGTGITTRQQRK
notes: also called NuMA peptide; source: E. coli BL21 (DE3), purified (glutathione agarose, TEV cleavage, MonoQ)
